T1: hsCLDN-4/cCpE complex (tagless proteins) (Homo sapiens CLDN4; Clostridium …)
T1 chain 1: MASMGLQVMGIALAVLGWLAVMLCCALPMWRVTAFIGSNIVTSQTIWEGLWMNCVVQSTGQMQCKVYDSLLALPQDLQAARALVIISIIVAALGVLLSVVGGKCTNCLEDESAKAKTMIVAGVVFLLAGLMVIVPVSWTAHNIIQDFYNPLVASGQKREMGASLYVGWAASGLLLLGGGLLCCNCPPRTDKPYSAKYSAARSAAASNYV
T1 chain 2: not shown

T2: pre-formed non-detergent hsCLDN-4/cCpE-His10 complex (hsCLDN-4 in amphipol A8-35 or in nanodiscs) (Homo sapiens CLDN4; Clostridium …)
T2 chain 1: T1 chain 1
T2 chain 2: not shown

T3: Clostridium perfringens enterotoxin with C-terminal decahistidine tag (CpE-His10) (Clostridium perfringens, UniProt P01558 1-319)
T3 sequence: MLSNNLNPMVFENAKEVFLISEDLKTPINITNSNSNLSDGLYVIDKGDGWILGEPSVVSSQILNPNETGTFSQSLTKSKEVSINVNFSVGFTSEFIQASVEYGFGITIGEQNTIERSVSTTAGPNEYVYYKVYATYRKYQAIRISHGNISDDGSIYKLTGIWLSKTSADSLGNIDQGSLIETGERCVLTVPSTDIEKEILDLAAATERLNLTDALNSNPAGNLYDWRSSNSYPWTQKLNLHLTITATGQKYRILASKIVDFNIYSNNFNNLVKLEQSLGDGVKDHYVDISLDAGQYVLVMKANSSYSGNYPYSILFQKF

B1: COP-3 (antibody, V domains shown)
VH: EVQLVESGGGLVQPGGSLRLSCAASGFNFYSSSIHWVRQAPGKGLEWVAYISSYSGYTYYADSVKGRFTISADTSKNTAYLQMNSLRAEDTAVYYCARGYGYFDYNFSVGYALDYWGQGTLVTVSS
VL: DIQMTQSPSSLSASVGDRVTITCRASQSVSSAVAWYQQKPGKAPKLLIYSASSLYSGVPSRFSGSRSGTDFTLTISSLQPEDFATYYCQQSHPWYYPITFGQGTKVEIK
B2: COP-1 (CpE Obstructing Protein 1), synthetic antibody fragment (Fab, V domains shown)
VH: EVQLVESGGGLVQPGGSLRLSCAASGFNFSSSYIHWVRQAPGKGLEWVASISSSSGSTSYADSVKGRFTISADTSKNTAYLQMNSLRAEDTAVYYCARWFHPWWWWEYLFRGAIDYWGQGTLVTVSS
VL: DIQMTQSPSSLSASVGDRVTITCRASQSVSSAVAWYQQKPGKAPKLLIYSASSLYSGVPSRFSGSRSGTDFTLTISSLQPEDFATYYCQQSSSSLITFGQGTKVEIK
notes: also called sFab
B3: mouse claudin-4, biotinylated (mmCLDN-4-Biotin) (natural protein)
chain: MASMGLQVLGISLAVLGWLGIILSCALPMWRVTAFIGSNIVTAQTSWEGLWMNCVVQSTGQMQCKMYDSMLALPQDLQAARALMVISIIVGALGMLLSVVGGKCTNCMEDETVKAKIMITAGAVFIVASMLIMVPVSWTAHNVIRDFYNPMVASGQKREMGASLYVGWAASGLLLLGGGLLCCSCPPRSNDKPYSAKYSAARSVPASNYV
modifications: biotin (NHS-PEG4-Biotin) on the N-terminal amine
B4: human claudin-9, biotinylated (hsCLDN-9-Biotin) (natural protein)
chain: MASTGLELLGMTLAVLGWLGTLVSCALPLWKVTAFIGNSIVVAQVVWEGLWMSCVVQSTGQMQCKVYDSLLALPQDLQAARALCVIALLLALLGLLVAITGAQCTTCVEDEGAKARIVLTAGVILLLAGILVLIPVCWTAHAIIQDFYNPLVAEALKRELGASLYLGWAAAALLMLGGGLLCCTCPPPQVERPRGPRLGYSIPSRSGASGLDKRDYV
modifications: biotin (NHS-PEG4-Biotin) on the N-terminal amine
B5: mouse claudin-3, biotinylated (mmCLDN-3-Biotin) (natural protein)
chain: MSMGLEITGTSLAVLGWLCTIVCCALPMWRVSAFIGSSIITAQITWEGLWMNCVVQSTGQMQCKMYDSLLALPQDLQAARALIVVSILLAAFGLLVALVGAQCTNCVQDETAKAKITIVAGVLFLLAALLTLVPVSWSANTIIRDFYNPLVPEAQKREMGAGLYVGWAAAALQLLGGALLCCSCPPRDKYAPTKILYSAPRSTGPGTGTGTAYDRKDYV
modifications: biotin (NHS-PEG4-Biotin) on the N-terminal amine
B6: human claudin-3, biotinylated (hsCLDN-3-Biotin) (natural protein)
chain: MSMGLEITGTALAVLGWLGTIVCCALPMWRVSAFIGSNIITSQNIWEGLWMNCVVQSTGQMQCKVYDSLLALPQDLQAARALIVVAILLAAFGLLVALVGAQCTNCVQDDTAKAKITIVAGVLFLLAALLTLVPVSWSANTIIRDFYNPVVPEAQKREMGAGLYVGWAAAALQLLGGALLCCSCPPREKKYTATKVVYSAPRSTGPGASLGTGYDRKDYV
modifications: biotin (NHS-PEG4-Biotin) on the N-terminal amine
B7: human claudin-4, biotinylated (hsCLDN-4-Biotin) (natural protein)
chain: T1 chain 1
modifications: biotin (NHS-PEG4-Biotin) on the N-terminal amine

Key:
[1] = target: T1, hsCLDN-4/cCpE complex (tagless proteins)
[2] = target: C-terminal domain of Clostridium perfringens enterotoxin (cCpE), tagless (Clostridium perfringens, UniProt P01558)
[3] = target: T4, pre-formed hsCLDN-3-Biotin/CpE-His10 complex (Homo sapiens CLDN3; Clostridium …, UniProt O15551;P01558); assay: BLI; conditions: both partners purified
T4 construct: source: pre-formed from the purified proteins (same method as the cCpE complexes)

[4] = target: T2, pre-formed non-detergent …; assay: BLI; conditions: both partners purified
[5] = target: T5, C-terminal domain of Clostridium perfringens enterotoxin with decahistidine tag (cCpE-His10) (Clostridium perfringens, UniProt P01558); assay: BLI; conditions: both partners purified
T5 construct: source: insect cells, purified (NiNTA, eluted with imidazole); not shown: His10, C-terminal, kept

[6] = target: T3, Clostridium perfringens enterotoxin …; assay: BLI; conditions: both partners purified

Binder	Kd [6] [nM]	also measured
B1	–	binding result [1]: binds; binding result [2]: binds
B2	–	binding result [3]: no binding (tested: 250 nM COP-1); Kd [4]: < 100 nM; binding result [5]: no binding (tested: 0–750 nM COP-1)
B3	17.9 ± 0.2	–
B4	10.5 ± 0.2	–
B5	16.1 ± 0.2	–
B6	77.6 ± 0.9	–
B7	7.3 ± 0.2	–
